Assay results taken from patent US10696631B2 (priority 2016, dated 2020).
Like-named read-outs stand apart in the source and are kept apart here.

What was measured:
[1] = tested on: U87MG xenografts; experiment: MicroPET imaging and biodistribution in U87MG xenografts
Text: (§1) Female athymic nude mice (Harlan Laboratories) were housed in an animal facility under pathogen-free conditions. Tumor model was developed in 5 to 6 weeks old female athymic nude mice by injection of 5×10^6 cells into their right shoulders. The mice underwent small-animal PET studies when the tumor volume reached 300 mm^3 (14-20 days after inoculation), and received ^90Y radionuclide therapy when the tumor volume reached 150 mm^3 (10-14 days after inoculation).
(§2) Blood, muscle, bone, liver, kidneys, spleen, intestine, heart and tumor were collected and wet-weighed. […] Radioactivity was measured in a γ-counter. The results were expressed % ID/g.

[2] = assay type: in vitro ADME, mouse
Text: At each time point, an aliquot was taken and loaded on iTLC plate and developed in for RadioTLC measurements.

[3] = mouse
Procedure: The red blood cells were separated from the plasma using centrifugation (3500 rpm for 5 min). […] The extracted soup was taken, filter on 0.45 μm filter and injected into an analytical HPLC using system 1.

[4] = tested on: U87MG cells
Procedure: (§3) All the cells were supplemented with 10% fetal bovine serum, 100 IU/mL penicillin, and […] streptomycin. Cells were grown in humidified atmosphere containing 5% CO2 at 37° C.

[5] = tested on: HT29 cells; experiment: Cellular uptake and internalization in HT29 cells; assay type: cell-based, human
Procedure: as §3

[6] = tested on: HT29 xenografts; conditions: mouse, in vivo
Text: as §1, §2

[7] = tested on: MDA-MB-435 xenografts; conditions: mouse, in vivo
Text: as §1, §2

[8] = human, in vivo
[9] = tested on: glioblastoma; conditions: human, in vivo
[10] = tested on: glioblastoma; experiment: PET in a patient with WHO stage IV glioblastoma; conditions: GBM patient
[11] = PET/CT and dosimetry calculation in healthy volunteers
[12] = tested on: U87MG tumor; experiment: 90Y radiotherapy in U87MG tumor bearing mice; assay type: in vivo, mouse
Text: NMEB-RGD was applied to integrin αvβ3 targeted radiotherapy. […] Similar pattern was observed after the second injection.

[13] = tested on: HT29 tumor; assay type: in vivo, mouse; conditions: HT-29 tumor xenografts, 7.4 MBq
Procedure: In order to test the specificity of ^90Y-DMEB-RGD radiotherapy to integrin αvβ3, the efficacy of 7.4 MBq ^90Y-DMEB-RGD in HT29 that expresses lower human integrin levels but has moderate expression of mouse integrin was tested (FIG. 6). […] Injection of HT29 tumor bearing mice with 7.4 MBq ^90Y-DMEB-RGD was compared in the same model to injection of saline (FIG. 18A). […] HT-29 treated and non-treated mice were sacrificed at day 26 post injection due to tumors ulcer.

[14] = tested on: U87MG tumor; experiment: 18F-FDG and 18F-FLT PET imaging after 90Y radiotherapy; assay type: in vivo, mouse
[15] = tested on: U87MG tumor; experiment: Histopathologic staining after targeted radiotherapy (CD31, Ki-67, TUNEL, H&E); assay type: in vivo, mouse
Procedure: U87MG tumor samples from Groups A-F were collected and sectioned after the animals were sacrificed. […] After being washed three times with PBS, samples were mounted with DAPI for staining of cell nuclei (Vector). Fluorescence images were acquired with an epifluorescence microscope (200×; Olympus, X81).
Immunofluorescent terminal deoxynucleotidetransferase-mediated biotin-dUTP labeling (TUNEL) analysis was done by use of a commercial available kit (Roche Applied Science). According to the manufacture's specifications, samples were fixed with 10% formalin and permeabilized by incubation with 0.1% Triton for 2 min on ice. After fixation and permeabilization, 50 μL of TUNEL reaction mixture were added on the samples. The slides were then incubated in a humidified atmosphere for 60 min at 37° C. in the dark. After rinsing with PBS and mounting with DAPI (Vector), samples were observed under an epifluorescence microscope using GFP channel.
CD31 staining to evaluate tumor vasculature, Ki-67 staining to evaluate tumor proliferation and TUNEL staining to determine the DNA damage were done for all the six groups (A-F). For groups A, E and F that had large necrotic area, staining was focused on the tumor rim where tumor cells were alive.

[16] = human, intravenous administration, n = 3

Cc1cc(-c2ccc(NC(=O)CN3CCN4CCN(CC3)CC(=O)[O][64Cu][O]C(=O)C4)c(C)c2)ccc1N=Nc1ccc2c(S(=O)(=O)O)cc(S(=O)(=O)O)c(N)c2c1O [64Cu-NEB]
tumor uptake ([1]; U87MG xenografts, 24 h p.i., PET): approximately 8 % ID/g
uptake in the tumor ([1]; U87MG xenografts, up to 4 h p.i.): 6-7 % ID/g
order of tumor uptake among xenografts ([1]; U87MG, HT29 and MDA-MB-435 xenografts): U87MG>HT29>MDA-MB-435
accumulation in the blood compared with the other tracers ([1]; all time points): highest accumulation in the blood at all time points

Cc1cc(-c2ccc(NC(=O)[C@@H](CCCCNC(=O)CCN3C(=O)CC(SCC(=O)NCCCC[C@H]4NC(=O)[C@H](Cc5ccccc5)NC(=O)[C@H](CC(=O)O)NC(=O)CNC(=O)[C@H](CCCNC(=N)N)NC4=O)C3=O)NC(=O)CN3CCN(CC(=O)O)CCN(CC(=O)O)CC3)c(C)c2)ccc1/N=N/c1ccc2c(S(=O)(=O)O)cc(S(=O)(=O)O)c(N)c2c1O (some centres unmarked) [64Cu-NMEB-RGD, metal not drawn]
stability in mouse serum (de-metalation) [2]: stable in mouse serum for up to 24 h
stability in the blood in vivo [3]: stable up to 4 h in the blood
radioactivity extraction bound to the blood proteins fraction ([3]; in vivo): Over 90%
cell uptake ([4]; U87MG cells, 4 h): 1.86±0.22 % of total input
cell uptake, effect of albumin in the medium ([4]; all time points): significantly higher in the absence of albumin in the medium
internalization ([4]; time points later than 5 min): most of ^64Cu-NMEB-RGD uptake was internalized
cell uptake [5]: 0.76±0.03%
tumor accumulation, % ID/g max ([1]; U87MG xenografts, 4 and 24 h p.i.): 27-30 % ID/g
tumor uptake (max) higher than uptake of 64Cu-NOTA-c(RGDfk) ([1]; mouse, in vivo): 15 times
tumor uptake blocked by ([1]; mouse, in vivo): 55-65%
tumor uptake compared with U87MG [6]: significantly lower than U87MG at all time points
tumor uptake compared with U87MG [7]: significantly lower than U87MG at all time points
accumulation in normal organs [8]: no undesired accumulation in normal organs
Estimated absorbed dose, Adrenals, Mean ([8]; iv): 0.0319 mSv/MBq
Estimated absorbed dose, Brain, Mean ([8]; iv): 0.0077 mSv/MBq
Estimated absorbed dose, Breasts, Mean ([8]; iv): 0.0241 mSv/MBq
Estimated absorbed dose, Gallbladder Wall, Mean ([8]; iv): 0.0346 mSv/MBq
Estimated absorbed dose, Heart Wall, Mean ([8]; iv): 0.0298 mSv/MBq
Estimated absorbed dose, Liver, Mean ([8]; iv): 0.1012 mSv/MBq
Estimated absorbed dose, Lower Large Intestine Wall, Mean ([8]; iv): 0.0291 mSv/MBq
Estimated absorbed dose, Lungs, Mean ([8]; iv): 0.0200 mSv/MBq
Estimated absorbed dose, Muscle, Mean ([8]; iv): 0.0127 mSv/MBq
Estimated absorbed dose, Osteogenic Cells, Mean ([8]; iv): 0.0528 mSv/MBq
Estimated absorbed dose, Ovaries, Mean ([8]; iv): 0.0294 mSv/MBq
Estimated absorbed dose, Pancreas, Mean ([8]; iv): 0.0647 mSv/MBq
Estimated absorbed dose, Red Marrow, Mean ([8]; iv): 0.0230 mSv/MBq
Estimated absorbed dose, Skin, Mean ([8]; iv): 0.0219 mSv/MBq
Estimated absorbed dose, Small Intestine, Mean ([8]; iv): 0.0545 mSv/MBq
Estimated absorbed dose, Spleen, Mean ([8]; iv): 0.1293 mSv/MBq
Estimated absorbed dose, Stomach Wall, Mean ([8]; iv): 0.0301 mSv/MBq
Estimated absorbed dose, Testes, Mean ([8]; iv): 0.0229 mSv/MBq
Estimated absorbed dose, Thymus, Mean ([8]; iv): 0.0261 mSv/MBq
Estimated absorbed dose, Thyroid, Mean ([8]; iv): 0.0248 mSv/MBq
Estimated absorbed dose, Total Body, Mean ([8]; iv): 0.0299 mSv/MBq
Estimated absorbed dose, Upper Large Intestine Wall, Mean ([8]; iv): 0.0317 mSv/MBq
Estimated absorbed dose, Urinary Bladder Wall, Mean ([8]; iv): 0.0268 mSv/MBq
Estimated absorbed dose, Uterus, Mean ([8]; iv): 0.0334 mSv/MBq
T(max/N), tumor/non-tumor ratio [9]: 73.4
T(max/N), tumor/non-tumor ratio ([10]; 0.5 h): 8.36
T(mean/N), tumor/non-tumor ratio ([10]; 0.5 h): 4.13
Tumor-SUVmax ([10]; 0.5 h): 1.84
Tumor-SUVmean ([10]; 0.5 h): 0.91
T(max/N), tumor/non-tumor ratio ([10]; 1 h): 9.78
T(mean/N), tumor/non-tumor ratio ([10]; 1 h): 4.96
Tumor-SUVmax ([10]; 1 h): 2.74
Tumor-SUVmean ([10]; 1 h): 1.39
T(max/N), tumor/non-tumor ratio ([10]; 8 h): 25.35
T(mean/N), tumor/non-tumor ratio ([10]; 8 h): 13.05
Tumor-SUVmax ([10]; 8 h): 5.07
Tumor-SUVmean ([10]; 8 h): 2.61
T(max/N), tumor/non-tumor ratio ([10]; 12 h): 32.89
T(mean/N), tumor/non-tumor ratio ([10]; 12 h): 17.21
Tumor-SUVmax ([10]; 12 h): 6.25
Tumor-SUVmean ([10]; 12 h): 3.27
T(max/N), tumor/non-tumor ratio ([10]; 20 h): 63.33
T(mean/N), tumor/non-tumor ratio ([10]; 20 h): 34.5
Tumor-SUVmax ([10]; 20 h): 3.8
Tumor-SUVmean ([10]; 20 h): 2.07
T(max/N), tumor/non-tumor ratio ([10]; 20.5 h): 66.16
T(mean/N), tumor/non-tumor ratio ([10]; 20.5 h): 34.5
Tumor-SUVmax ([10]; 20.5 h): 3.97
Tumor-SUVmean ([10]; 20.5 h): 2.07
T(mean/N), tumor/non-tumor ratio ([10]; 24 h): 40.2
Tumor-SUVmax ([10]; 24 h): 3.67
Tumor-SUVmean ([10]; 24 h): 2.01
effective dose ([11]; healthy volunteers): 0.1166 Rem/mCi
Effective Dose Equivalent, Mean [11, 16]: 0.0454 mSv/MBq
Effective Dose, Mean [11, 16]: 0.0315 mSv/MBq
Estimated absorbed dose, Kidneys, Mean [11, 16]: 0.0994 mSv/MBq
exposure ([11]; subject injected with 8 mCi): 0.933 Rem

Cc1cc(-c2ccc(NC(=O)[C@@H](CCCCNC(=O)CCN3C(=O)CC(SCC(=O)NCCCC[C@H]4NC(=O)[C@H](Cc5ccccc5)NC(=O)[C@H](CC(=O)O)NC(=O)CNC(=O)[C@H](CCCNC(=N)N)NC4=O)C3=O)NC(=O)CN3CCN(CC(=O)O)CCN(CC(=O)O)CCN(CC(=O)O)CC3)c(C)c2)ccc1/N=N/c1ccc2c(S(=O)(=O)O)cc(S(=O)(=O)O)c(N)c2c1O (some centres unmarked) [90Y-DMEB-RGD, metal not drawn]
tumor volume ([12]; 1.75 MBq, second injection): No effect on the tumor volume
tumor volume ([12]; 3.7 MBq, second injection): Minor tumor shrink
survival compared with saline and 90Y-DOTA-c(RGDfK) groups ([12]; 7.4, 3.7 and 1.75 MBq groups): significant differences (p<0.01)
tumor volume compared with saline group ([12]; 7.4, 3.7 and 1.75 MBq groups, day 6 post treatment): significantly lower (p<0.01)
body weight loss ([12]; 7.4 MBq, day 2, regained at day 4): 5%
tumor volume ([12]; 7.4 MBq, first injection): reduction of volume by day 8
tumor volume ([12]; 7.4 MBq, second injection 14 days post initial treatment): tumors almost disappeared up to 30 days post initial treatment
tumor growth [13]: delay of tumor growth
18F-FLT PET, tumor proliferation ([14]; 5 and 12 days post initial treatment, group B 7.4 MBq): significant less 18F-FLT uptake
18F-FDG PET, tumor metabolism ([14]; 3 days post-injection): decreased metabolism
18F-FDG PET, tumor metabolism ([14]; 10 days post-treatment, group B 7.4 MBq): significant decreased metabolism
cell apoptosis (TUNEL staining) ([15]; group B 7.4 MBq): considerably more cell apoptosis
cell proliferation (Ki-67 staining) ([15]; group B 7.4 MBq): significantly reduced cell proliferation
tumor vasculature (CD31 staining) ([15]; group B 7.4 MBq): lesser than that in the other groups
Hematoxylin and eosin staining, tumor necrosis ([15]; group B, two doses of 7.4 MBq): most of the tumor area in Group B was already necrotic
